From PMC8225996 (Frontiers in Cardiovascular Medicine, 2021)

Target: T1, Angiotensin converting enzyme 2 (mouse (endogenous in primary brain …, UniProt Q8R0I0 18-805))
T1 construct: Angiotensin converting enzyme 2 (ACE2), type I membrane glycoprotein; endogenous in mouse brain microvascular endothelial cells; also called ACE2; ACE2 receptor; source: endogenous, mouse primary brain microvascular endothelial cells (C57BL/6 control; db/db diabetic), in lysate
Assay: co-IP; ACE2 antibody (2 ug) with 150 ug lysate of control endothelial cells treated with Spike; Catch and Release spin columns, 18 h at 4 C; blots probed for Rab5a
Conditions: partners not purified

T1 sequence (Q8R0I0 18-805): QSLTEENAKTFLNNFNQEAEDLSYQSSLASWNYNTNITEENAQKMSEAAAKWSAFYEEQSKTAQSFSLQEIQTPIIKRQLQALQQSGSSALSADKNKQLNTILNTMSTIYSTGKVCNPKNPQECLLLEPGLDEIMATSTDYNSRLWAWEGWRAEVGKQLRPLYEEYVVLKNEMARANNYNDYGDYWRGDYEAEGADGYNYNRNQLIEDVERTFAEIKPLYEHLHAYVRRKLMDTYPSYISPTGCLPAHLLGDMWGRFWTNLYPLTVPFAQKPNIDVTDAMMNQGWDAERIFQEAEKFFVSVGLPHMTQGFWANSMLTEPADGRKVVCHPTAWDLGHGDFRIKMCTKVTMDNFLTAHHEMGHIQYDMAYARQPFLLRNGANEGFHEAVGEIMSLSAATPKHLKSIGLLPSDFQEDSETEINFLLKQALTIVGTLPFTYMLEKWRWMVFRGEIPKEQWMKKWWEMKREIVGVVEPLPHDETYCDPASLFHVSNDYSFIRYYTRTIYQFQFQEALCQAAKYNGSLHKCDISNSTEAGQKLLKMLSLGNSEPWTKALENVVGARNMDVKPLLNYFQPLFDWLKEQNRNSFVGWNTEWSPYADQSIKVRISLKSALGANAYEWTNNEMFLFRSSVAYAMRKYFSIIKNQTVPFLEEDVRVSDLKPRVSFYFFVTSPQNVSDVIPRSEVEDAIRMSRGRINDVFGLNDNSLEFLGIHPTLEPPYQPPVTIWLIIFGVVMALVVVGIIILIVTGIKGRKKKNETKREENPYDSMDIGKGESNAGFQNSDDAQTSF

B1: Rab5a (natural protein, UniProt Q9CQD1 1-215, looked up)
chain: MANRGATRPNGPNTGNKICQFKLVLLGESAVGKSSLVLRFVKGQFHEFQESTIGAAFLTQTVCLDDTTVKFEIWDTAGQERYHSLAPMYYRGAQAAIVVYDITNEESFARAKNWVKELQRQASPNIVIALSGNKADLANKRAVDFQEAQSYADDNSLLFMETSAKTSMNVNEIFMAIAKKLPKNEPQNPGANSARGRGVDLTEPAQPARSQCCSN
notes: Rab5a, Rab GTPase of the endolysosomal trafficking pathway; endogenous in mouse brain microvascular endothelial cells; source: endogenous, mouse primary brain microvascular endothelial cells (C57BL/6 control; db/db diabetic), in lysate
- fold change of association with ACE2, Spike-treated against untreated cells: 2 fold
